Key:
Assay in all cases: cell-based or functional assay
[1] = target: S protein of SARS-CoV strain Urbani (SARS-CoV strain Urbani)
[2] = target: S protein of HCoV strain 229E (HCoV 229E) (UniProt P15423)
[3] = target: S protein of HCoV strain NL63 (HCoV NL63) (UniProt Q6Q1S2)
[4] = target: S protein of MERS-CoV strain EMC/2012 (MERS-CoV strain EMC/2012) (UniProt K9N5Q8)
[5] = target: S protein of SARS-CoV strain Tor-II (SARS-CoV strain Tor-II) (UniProt P59594)
[6] = target: S protein of HCoV strain OC43 (HCoV OC43) (UniProt P36334)
[7] = target: S protein of SARS-CoV strain CuHK (SARS-CoV strain CuHK)
[8] = target: S protein of SARS-CoV strain Frank (SARS-CoV strain Frank)
[9] = target: S protein of SARS-CoV-2 strain USA-WA1/2020 (SARS-CoV-2 strain USA-WA1/2020) (UniProt P0DTC2)

UniProt Q6Q1S2, sequence (Q6Q1S2 19-1356): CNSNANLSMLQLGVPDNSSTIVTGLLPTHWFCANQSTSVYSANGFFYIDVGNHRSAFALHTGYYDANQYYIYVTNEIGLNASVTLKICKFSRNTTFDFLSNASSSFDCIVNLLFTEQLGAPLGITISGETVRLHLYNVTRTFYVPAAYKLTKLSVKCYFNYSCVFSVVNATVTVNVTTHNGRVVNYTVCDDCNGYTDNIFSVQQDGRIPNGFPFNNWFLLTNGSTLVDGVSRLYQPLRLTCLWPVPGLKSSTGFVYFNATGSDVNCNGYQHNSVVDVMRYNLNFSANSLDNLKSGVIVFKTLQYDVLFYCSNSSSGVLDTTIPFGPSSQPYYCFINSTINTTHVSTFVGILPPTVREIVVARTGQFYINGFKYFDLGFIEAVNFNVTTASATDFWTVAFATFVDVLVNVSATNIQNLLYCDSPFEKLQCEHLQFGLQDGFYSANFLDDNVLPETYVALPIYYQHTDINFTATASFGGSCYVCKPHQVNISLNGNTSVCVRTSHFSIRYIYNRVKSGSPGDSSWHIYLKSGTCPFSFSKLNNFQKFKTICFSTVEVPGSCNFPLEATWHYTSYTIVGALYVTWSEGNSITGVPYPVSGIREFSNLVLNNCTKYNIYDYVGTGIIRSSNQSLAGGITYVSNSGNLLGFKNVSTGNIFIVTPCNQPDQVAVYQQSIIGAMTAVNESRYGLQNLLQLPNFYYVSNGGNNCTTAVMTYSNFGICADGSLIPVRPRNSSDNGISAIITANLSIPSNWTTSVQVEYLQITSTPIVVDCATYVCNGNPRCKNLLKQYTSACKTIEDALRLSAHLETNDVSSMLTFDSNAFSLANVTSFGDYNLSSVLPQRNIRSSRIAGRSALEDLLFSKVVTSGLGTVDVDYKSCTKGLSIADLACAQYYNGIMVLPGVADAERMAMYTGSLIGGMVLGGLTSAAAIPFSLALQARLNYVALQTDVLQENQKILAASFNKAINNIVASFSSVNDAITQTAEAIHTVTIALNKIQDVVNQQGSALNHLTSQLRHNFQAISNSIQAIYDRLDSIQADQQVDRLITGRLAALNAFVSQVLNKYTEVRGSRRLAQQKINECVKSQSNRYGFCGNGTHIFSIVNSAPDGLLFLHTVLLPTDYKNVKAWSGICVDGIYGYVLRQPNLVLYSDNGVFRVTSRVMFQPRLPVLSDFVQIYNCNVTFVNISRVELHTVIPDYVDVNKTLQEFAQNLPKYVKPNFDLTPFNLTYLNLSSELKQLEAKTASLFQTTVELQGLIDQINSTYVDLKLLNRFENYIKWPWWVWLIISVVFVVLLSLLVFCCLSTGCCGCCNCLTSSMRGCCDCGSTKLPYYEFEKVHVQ
UniProt P36334, sequence (P36334 14-1353): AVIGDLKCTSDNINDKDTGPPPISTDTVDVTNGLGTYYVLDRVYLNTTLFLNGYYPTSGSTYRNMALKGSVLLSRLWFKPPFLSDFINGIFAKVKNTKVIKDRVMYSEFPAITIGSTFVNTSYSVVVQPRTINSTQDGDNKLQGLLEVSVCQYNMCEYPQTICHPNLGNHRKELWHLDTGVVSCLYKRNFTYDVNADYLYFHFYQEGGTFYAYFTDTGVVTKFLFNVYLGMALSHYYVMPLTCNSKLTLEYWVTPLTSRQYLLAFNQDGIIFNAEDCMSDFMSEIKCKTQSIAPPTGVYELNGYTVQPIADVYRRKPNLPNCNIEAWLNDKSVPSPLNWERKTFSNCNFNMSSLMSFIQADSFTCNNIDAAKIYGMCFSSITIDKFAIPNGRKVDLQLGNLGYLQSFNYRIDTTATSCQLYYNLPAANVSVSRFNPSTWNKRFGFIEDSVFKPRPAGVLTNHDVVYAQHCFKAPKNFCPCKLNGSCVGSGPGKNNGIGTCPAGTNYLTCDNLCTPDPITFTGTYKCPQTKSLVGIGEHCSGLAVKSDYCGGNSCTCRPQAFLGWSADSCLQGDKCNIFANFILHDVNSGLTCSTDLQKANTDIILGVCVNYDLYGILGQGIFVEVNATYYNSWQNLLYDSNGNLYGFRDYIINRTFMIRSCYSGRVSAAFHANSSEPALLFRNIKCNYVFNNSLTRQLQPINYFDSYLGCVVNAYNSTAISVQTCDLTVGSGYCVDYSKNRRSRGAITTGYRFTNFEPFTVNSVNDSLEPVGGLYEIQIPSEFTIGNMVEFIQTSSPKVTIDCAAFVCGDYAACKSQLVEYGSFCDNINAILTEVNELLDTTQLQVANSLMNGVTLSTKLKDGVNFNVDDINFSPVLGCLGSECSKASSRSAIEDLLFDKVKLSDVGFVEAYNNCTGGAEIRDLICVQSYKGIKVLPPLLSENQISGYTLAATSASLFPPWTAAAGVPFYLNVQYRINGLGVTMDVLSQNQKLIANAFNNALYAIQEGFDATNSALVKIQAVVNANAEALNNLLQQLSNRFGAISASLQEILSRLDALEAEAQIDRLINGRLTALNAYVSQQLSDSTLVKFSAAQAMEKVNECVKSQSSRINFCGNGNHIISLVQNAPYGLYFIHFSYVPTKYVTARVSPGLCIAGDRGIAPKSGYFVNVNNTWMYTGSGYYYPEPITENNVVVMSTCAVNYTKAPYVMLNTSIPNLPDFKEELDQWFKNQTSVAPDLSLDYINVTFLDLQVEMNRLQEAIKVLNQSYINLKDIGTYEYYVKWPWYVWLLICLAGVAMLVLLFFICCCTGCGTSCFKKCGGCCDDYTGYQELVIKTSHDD
UniProt K9N5Q8, sequence (K9N5Q8 18-1353): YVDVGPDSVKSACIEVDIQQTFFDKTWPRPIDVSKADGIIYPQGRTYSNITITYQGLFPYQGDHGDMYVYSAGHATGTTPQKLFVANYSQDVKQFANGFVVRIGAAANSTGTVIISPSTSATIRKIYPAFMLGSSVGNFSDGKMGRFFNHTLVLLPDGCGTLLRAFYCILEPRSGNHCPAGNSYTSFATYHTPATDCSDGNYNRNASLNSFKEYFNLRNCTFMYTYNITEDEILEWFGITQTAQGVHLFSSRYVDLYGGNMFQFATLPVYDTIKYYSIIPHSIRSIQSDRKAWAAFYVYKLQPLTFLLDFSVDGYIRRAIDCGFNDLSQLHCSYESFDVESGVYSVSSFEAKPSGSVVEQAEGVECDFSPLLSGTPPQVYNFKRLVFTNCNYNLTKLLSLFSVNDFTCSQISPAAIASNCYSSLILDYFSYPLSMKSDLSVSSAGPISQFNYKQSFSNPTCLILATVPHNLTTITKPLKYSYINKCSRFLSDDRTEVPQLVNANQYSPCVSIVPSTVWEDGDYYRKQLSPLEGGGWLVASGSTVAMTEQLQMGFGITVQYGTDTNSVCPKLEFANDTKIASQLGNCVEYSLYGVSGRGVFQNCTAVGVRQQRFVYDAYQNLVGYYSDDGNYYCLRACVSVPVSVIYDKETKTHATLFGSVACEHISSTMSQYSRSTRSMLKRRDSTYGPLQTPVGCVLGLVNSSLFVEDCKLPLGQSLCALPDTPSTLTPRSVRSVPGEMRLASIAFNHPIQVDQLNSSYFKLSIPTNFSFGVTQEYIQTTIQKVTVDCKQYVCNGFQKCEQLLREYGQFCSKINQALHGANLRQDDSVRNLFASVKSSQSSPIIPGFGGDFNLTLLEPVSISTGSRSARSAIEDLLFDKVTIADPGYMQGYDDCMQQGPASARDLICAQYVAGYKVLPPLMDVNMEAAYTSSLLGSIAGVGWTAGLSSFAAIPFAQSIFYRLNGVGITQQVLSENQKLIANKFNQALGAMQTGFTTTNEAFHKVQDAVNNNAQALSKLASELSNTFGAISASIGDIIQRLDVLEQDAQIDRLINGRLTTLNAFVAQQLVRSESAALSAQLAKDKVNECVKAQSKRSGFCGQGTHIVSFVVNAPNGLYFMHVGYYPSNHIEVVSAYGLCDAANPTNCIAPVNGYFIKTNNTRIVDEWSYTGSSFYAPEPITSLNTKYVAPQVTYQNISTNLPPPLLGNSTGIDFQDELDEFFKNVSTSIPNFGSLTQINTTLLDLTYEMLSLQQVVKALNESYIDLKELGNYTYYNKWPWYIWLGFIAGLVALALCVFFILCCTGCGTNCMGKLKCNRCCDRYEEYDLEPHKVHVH

Q: With wild-type griffithsin as the substance, how does the Antiviral activity EC50 [1] read?
A: Its Antiviral activity EC50 is 0.61 µg/mL.

Q: What about the Antiviral activity EC50 [2] of the same substance?
A: The Antiviral activity EC50 was 0.18 µg/mL.

Q: And the Antiviral activity EC50 [3]?
A: Its Antiviral activity EC50 is under 0.0032 µg/mL.

Q: What about the Antiviral activity EC50 [4] of the same substance?
A: The Antiviral activity EC50 was under 0.124 µg/mL.

Q: And the Antiviral activity EC50 [5]?
A: The Antiviral activity EC50 was 0.61 µg/mL.

Q: And the Antiviral activity EC50 [6]?
A: The Antiviral activity EC50 was 0.16 µg/mL.

Q: What about the Antiviral activity EC50 [7] of the same substance?
A: Its Antiviral activity EC50 is 0.78 µg/mL.

Q: And the Antiviral activity EC50 [8]?
A: The Antiviral activity EC50 was 1.19 µg/mL.

Q: And the Antiviral activity EC50 [9]?
A: Its Antiviral activity EC50 is under 0.1 µg/mL.
